2 molecules from US20210277100A1 (SCHOLAR ROCK, published 2021) can be followed below.

For test [1], the target named is human proTGFβ1 in complex with GARP expressed on transfected HEK293 or Sw480 cells (human, UniProt Q14392 20-662; P01137 30-390). Kind of test: cell-based or functional assay.
The target of test [2] is T1, TGFβ1 growth factor (human, UniProt P01137 279-390).
T1 construct: domain: growth factor; also called TGFb1 (soluble form)
The experiment in a line: BLI, OctetRed 384 (FIG. 4). The method, then: (§1) The binding affinities of the proTGFβ1-GARP complex-selective antibody candidates to proTGFβ1-GARP complexes were measured by biolayer interferometry on an OctetRed 384 (Fortebio, Menlo Park, Calif.). Strepavidin biosensors (Fortebio, Cat. No. 18-5020) were loaded with biotinylated sGARP-proTGFβ1 complex at 20 μg/ml in sodium acetate buffer, pH 5, washed in the same buffer and transferred to wells containing 10 μg/mL proTGFβ1-GARP complex-selective antibody candidates in the same buffer. The dissociation constant was obtained by non-linear fitting of the responses to a steady state algorithm using Octet software (Table 4). Similar affinities were obtained by kinetic fitting.
(§2) To ascertain binding specificity, 4B1C1 and 4B16B9 were screened as above for binding to TGFβ1, TGFβ2, TGFβ3, proTGFβ1-LTBP1, proTGFβ1-LTBP3 and proTGFβ1-LRRC33. As described above, antibodies were tested at 10 μg/ml and antigens at 20 μg/ml and tested under the following conditions.
(§3) proTGFβ1-GARP complex-selective antibody candidates were measured by biolayer interferometry on an OctetRed 384 (Fortebio, Menlo Park, Calif.) for selectivity for proTGFβ1-GARP complex over other protein complexes (FIG. 4).
For orientation: BLI is a label-free optical method that tracks binding on a fibre tip over time.

In test [3] the target is T2, TGFβ2 growth factor (UniProt P61812 303-414).
T2 construct: domain: growth factor
T2 sequence (looked up): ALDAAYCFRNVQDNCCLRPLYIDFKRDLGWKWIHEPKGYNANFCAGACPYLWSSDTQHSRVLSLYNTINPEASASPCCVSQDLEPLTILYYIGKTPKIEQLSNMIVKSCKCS
Kind of test: BLI, OctetRed 384 (FIG. 4). On the procedure:
as §1, §2, §3

Test [4] has as its target T3, TGFβ3 growth factor (UniProt P10600 301-412).
T3 construct: domain: growth factor
T3 sequence (looked up): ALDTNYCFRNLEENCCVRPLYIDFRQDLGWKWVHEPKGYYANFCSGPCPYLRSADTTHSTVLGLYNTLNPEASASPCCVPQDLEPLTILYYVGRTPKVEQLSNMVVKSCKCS
Kind of test: BLI, OctetRed 384 (FIG. 4). On the procedure: as §1, §2, §3

Test [5] has as its target T4, rGARP-proTGFβ1.
T4 construct: not given
The experiment in a line: biolayer interferometry (OctetRed 384). The method, then: as §1, §3

The target in test [6] is T1, TGFβ1 growth factor. The experiment in a line: BLI, OctetRed 384, antigen loaded on biosensor. On the procedure: as §1, §2
In test [7] the target is T5, hGARP-TGFβ1-LAP (human).
T5 construct: not given
T5 sequence (Q14392 20-627, chain 1 of 2): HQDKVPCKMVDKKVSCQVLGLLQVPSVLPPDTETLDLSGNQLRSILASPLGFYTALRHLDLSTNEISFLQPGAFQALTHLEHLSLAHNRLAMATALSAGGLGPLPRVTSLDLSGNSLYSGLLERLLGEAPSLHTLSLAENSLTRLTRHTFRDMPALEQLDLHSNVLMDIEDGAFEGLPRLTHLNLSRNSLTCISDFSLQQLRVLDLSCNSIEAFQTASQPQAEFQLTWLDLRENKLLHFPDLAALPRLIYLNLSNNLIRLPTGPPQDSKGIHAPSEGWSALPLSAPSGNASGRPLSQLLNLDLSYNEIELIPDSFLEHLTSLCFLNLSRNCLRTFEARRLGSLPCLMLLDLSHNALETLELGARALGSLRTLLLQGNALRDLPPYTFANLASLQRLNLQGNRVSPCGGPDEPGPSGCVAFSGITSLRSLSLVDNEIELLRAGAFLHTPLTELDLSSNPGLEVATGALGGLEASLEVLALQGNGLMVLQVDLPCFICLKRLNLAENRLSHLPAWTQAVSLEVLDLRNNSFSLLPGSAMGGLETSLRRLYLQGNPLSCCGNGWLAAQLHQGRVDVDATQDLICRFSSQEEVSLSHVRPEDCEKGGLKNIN
T5 sequence (P01137 30-390, chain 2 of 2, further chain): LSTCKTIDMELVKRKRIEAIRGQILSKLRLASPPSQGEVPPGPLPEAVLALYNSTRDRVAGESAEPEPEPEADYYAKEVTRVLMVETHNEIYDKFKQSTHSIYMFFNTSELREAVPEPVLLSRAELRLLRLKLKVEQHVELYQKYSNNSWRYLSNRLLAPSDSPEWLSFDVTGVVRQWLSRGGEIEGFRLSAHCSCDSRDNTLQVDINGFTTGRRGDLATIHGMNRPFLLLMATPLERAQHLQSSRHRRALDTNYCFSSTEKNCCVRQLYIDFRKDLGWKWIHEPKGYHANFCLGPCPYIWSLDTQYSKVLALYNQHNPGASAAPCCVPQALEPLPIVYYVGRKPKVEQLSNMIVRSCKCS
The experiment in a line: biolayer interferometry (OctetRed 384). On the procedure:
as §1, §3

T1 sequence (P01137 279-390 limits assumed): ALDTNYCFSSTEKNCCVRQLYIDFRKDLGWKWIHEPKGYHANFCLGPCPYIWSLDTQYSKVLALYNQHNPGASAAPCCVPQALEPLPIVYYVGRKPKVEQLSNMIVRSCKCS
Sequence of human proTGFβ1 in complex with GARP expressed on transfected HEK293 or Sw480 cells (Q14392 20-662, chain 1 of 2): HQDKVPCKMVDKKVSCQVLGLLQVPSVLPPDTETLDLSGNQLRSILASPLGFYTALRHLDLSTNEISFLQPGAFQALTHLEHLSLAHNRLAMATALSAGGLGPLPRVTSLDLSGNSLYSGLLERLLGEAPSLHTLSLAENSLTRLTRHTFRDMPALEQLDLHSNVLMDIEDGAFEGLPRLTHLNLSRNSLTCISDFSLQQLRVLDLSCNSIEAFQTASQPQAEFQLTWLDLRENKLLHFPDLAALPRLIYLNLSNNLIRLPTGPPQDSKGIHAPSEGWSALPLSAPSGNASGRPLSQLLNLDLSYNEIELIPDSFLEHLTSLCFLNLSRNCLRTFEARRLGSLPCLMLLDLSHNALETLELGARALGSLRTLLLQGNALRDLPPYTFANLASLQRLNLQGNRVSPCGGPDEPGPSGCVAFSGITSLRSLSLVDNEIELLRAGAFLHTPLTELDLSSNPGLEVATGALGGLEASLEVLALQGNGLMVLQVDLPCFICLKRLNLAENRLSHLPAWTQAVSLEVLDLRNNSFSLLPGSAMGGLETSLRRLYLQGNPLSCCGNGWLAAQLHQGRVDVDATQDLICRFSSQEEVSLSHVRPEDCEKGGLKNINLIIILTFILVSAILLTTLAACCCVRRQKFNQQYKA
Sequence of human proTGFβ1 in complex with GARP expressed on transfected HEK293 or Sw480 cells (P01137 30-390, chain 2 of 2): as the sequence (P01137 30-390, chain 2 of 2, further chain) above

B1: 4B16B9 (antibody, human IgG4 S228P, lambda, V domains shown)
VH: QMQLVQSGAEVKKPGSSVKVSCKASGGTFSSYAISWVRQAPGQGLEWMGGIIPMFGTTNYAQKFQGRVTIIADESTSTAYMELRSLRSDDTAVYYCARDREWEPAYGMDVWGQGTTVTVSS
VL: QSALTQPASVSGSPGQSITISCIGTSSDVGGYNYVSWYQQHPGKAPKLMIYDVSNRPSGVSNRFSGSKSGNTASLTISGLQAEDEAMYYCSAYTVSSTWVFGGGTKVTVLG
notes: Fully human, from a phage display scFv; also called proTGFβ1-GARP complex-selective antibody candidate
Turning to B1, in test [1], the “IC50 of inhibition of TGFβ1 activation, TMLC reporter cells” value was 1.9 nM. Also, the binding result in test [2], in test [3] and in test [4] was “no binding” in each case. Further, in test [5], the affinity, expressed as Kd, was 0.158 nM.

B2: 4B1C1 (antibody, human IgG4 S228P, kappa, V domains shown)
VH: EVQLVQSGGVVVQPGGSLRLSCAASGFTFDDYTMHWVRQAPGKGLEWVSLISWDGGSTYYADSVKGRFTISRDNSKNSLYLQMNSLRTEDTALYYCAKDADDSTFDIWGQGTMVTVSS
VL: ETTLTQSPATLSVSPGERVTLSCRASQSVSRNLAWYQQKPGQPPKLLIYWASTRESGVPDRFSGSGSGTDFTLTISSLQAEDVAVYYCQQYYSVPYTFGQGTKLEIKR
notes: Fully human, from a phage display scFv; also called 4B1Cl; proTGFβ1-GARP complex-selective antibody candidate
Take B2: in test [1], the “IC50 of inhibition of TGFβ1 activation, TMLC reporter cells” value was 0.178 nM. Also, the binding result in test [3], in test [4] and in test [6] was “no binding” each time. Besides, the Kd (usually the constant that tells how readily two partners part at equilibrium) in test [7] came out at 11.3 nM; in test [5], 0.187 nM.
